Results as given in patent US20250161356A1.

Columns and labels:
[1] = target: BTN2A1-BTN3A1-zipper ectodomain complex (wild type) (human) (UniProt Q7KYR7); test: flow cytometry, complex tetramer MFI on transfected BTN2A.BTN3A KO HEK293T cells; mean ± SEM; control
[2] = target: BTN2A1-BTN3A1 complex peptide on (human); test: PE-labelled BTN2A1-BTN3A1 complex tetramer on BTN2A.BTN3A-knockout HEK293T cells transfected with the TCR and CD3; reduced against WT G115; full-length, on cells
[3] = target: full-length human BTN3A1 on transfected cells (human) (UniProt O00481); test: flow cytometry, γδTCR tetramer-PE on BTN3A1+ NIH-3T3 cells, isotype (IgG1κ)-treated (black number), GFP+ gate; SAv ctl 28
[4] = target: G115 Vγ9Vδ2+ TCR Glu52δ-Ala on transfected HEK293T cells (human); test: flow cytometry, tetramer-PE versus CD3-APC on HEK293T cells co-transfected with CD3 and G115 Glu52δ-Ala TCR; SAv ctl 32
[5] = target: full-length human BTN3A1 on transfected cells (human) (UniProt O00481); test: flow cytometry, control tetramer-PE on BTN3A1+ NIH-3T3 cells, isotype (IgG1κ)-treated (black number), GFP+ gate; SAv ctl 25
[6] = target: BTN2A1 on transfected cells (human) (UniProt Q7KYR7); test: flow cytometry, control tetramer-PE on BTN2A1+ NIH-3T3 cells, mAb 20.1-treated (grey number), GFP+ gate; SAv ctl 22
[7] = target: G115 Vγ9Vδ2+ TCR wild-type, full-length, on transfected HEK293T cells (human); test: flow cytometry, tetramer-PE versus CD3-APC on HEK293T cells co-transfected with CD3 and G115 WT TCR; SAv ctl 27
[8] = target: G115 Vγ9Vδ2+ TCR His85γ-Ala on transfected HEK293T cells (human); test: flow cytometry, tetramer-PE versus CD3-APC on HEK293T cells co-transfected with CD3 and G115 His85γ-Ala TCR; SAv ctl 27
[9] = target: G115 Vγ9Vδ2+ TCR Lys53δ-Ala on transfected HEK293T cells (human); test: flow cytometry, tetramer-PE versus CD3-APC on HEK293T cells co-transfected with CD3 and G115 Lys53δ-Ala TCR; SAv ctl 27

Chain of BTN2A1 on transfected cells (human) (Q7KYR7 29-527 limits assumed): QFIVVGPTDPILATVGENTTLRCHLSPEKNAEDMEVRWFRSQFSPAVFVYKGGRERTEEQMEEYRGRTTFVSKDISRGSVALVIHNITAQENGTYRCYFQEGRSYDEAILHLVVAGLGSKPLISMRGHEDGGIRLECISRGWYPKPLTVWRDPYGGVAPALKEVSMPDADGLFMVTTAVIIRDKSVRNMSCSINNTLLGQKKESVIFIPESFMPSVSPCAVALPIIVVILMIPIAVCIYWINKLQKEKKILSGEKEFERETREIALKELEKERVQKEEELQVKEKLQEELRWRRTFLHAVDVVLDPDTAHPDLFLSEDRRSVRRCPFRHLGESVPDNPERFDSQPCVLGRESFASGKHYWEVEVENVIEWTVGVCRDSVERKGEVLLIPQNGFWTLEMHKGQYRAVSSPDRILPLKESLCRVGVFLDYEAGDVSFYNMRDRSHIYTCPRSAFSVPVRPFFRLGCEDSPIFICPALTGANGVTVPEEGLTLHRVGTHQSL
Chain of G115 Vγ9Vδ2+ TCR His85γ-Ala on transfected HEK293T cells (human) (TCR delta, as listed by the source, chain 1 of 2): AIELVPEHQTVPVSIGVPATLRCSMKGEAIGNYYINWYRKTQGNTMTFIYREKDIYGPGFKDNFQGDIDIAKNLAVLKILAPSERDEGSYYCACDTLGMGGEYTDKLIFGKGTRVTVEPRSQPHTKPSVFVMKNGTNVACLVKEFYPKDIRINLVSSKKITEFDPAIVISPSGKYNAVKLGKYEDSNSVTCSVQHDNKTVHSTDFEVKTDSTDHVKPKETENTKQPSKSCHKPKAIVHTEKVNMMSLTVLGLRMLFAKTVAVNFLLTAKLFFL
Chain of G115 Vγ9Vδ2+ TCR His85γ-Ala on transfected HEK293T cells (human) (TCR gamma, as listed by the source, chain 2 of 2): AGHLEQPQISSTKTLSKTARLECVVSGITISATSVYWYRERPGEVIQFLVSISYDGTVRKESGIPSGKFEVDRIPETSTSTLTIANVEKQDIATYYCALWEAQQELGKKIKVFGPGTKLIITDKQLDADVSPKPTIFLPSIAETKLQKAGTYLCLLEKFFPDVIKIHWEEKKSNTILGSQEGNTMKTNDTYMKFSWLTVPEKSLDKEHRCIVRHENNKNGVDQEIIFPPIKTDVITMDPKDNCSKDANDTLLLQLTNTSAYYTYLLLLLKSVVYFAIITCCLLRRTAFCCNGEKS

CD3 complex on HEK293T cells transfected with CD3 only (receptor)
fold-change of BTN2A1-BTN3A1 complex tetramer MFI relative to WT G115 TCR [1]: 0.3 fold

G115 Vγ9Vδ2+ TCR K53D
fold change of tetramer MFI against WT G115 TCR [2]: 0.8 fold

G115 Vγ9Vδ2+ TCR K53E
fold change of tetramer MFI against WT G115 TCR [2]: 0.7 fold

chimeric γδTCR tetramer: G115 Vγ9+ γ-chain with 9C2 Vδ1+ δ-chain
MFI of PE [3]: 24

mCD1d tet. ctl
median fluorescence of PE [4]: 28 | MFI of PE [5]: 32 | MFI of PE [6]: 20 | median fluorescence of PE [7]: 20 | median fluorescence of PE [8]: 22 | median fluorescence of PE [9]: 23
